Patent US20160356723A1, “Light-Up Probes Based On Fluorogens With Aggregation Induced Emission Characteristics For Cellular Imaging And Drug Screening” (NATIONAL UNIVERSITY OF SINGAPORE, priority 2014, published 2016)

Tests used:
[1] = In vitro cytotoxicity studies; format: cell-based
[2] = system: U87-MG cells; test: Confocal imaging of intracellular thiols, U87-MG; format: cell-based, human; details: BSO increased from 25 to 100 μM
Procedure: To explore the capability of using TPE-SS-D5-cRGD as a specific bioprobe for monitoring intracellular thiol levels in cancer cells, the probe is incubated with U87-MG human glioblastoma and MCF-7 breast cancer cell lines. U87-MG cells with overexpressed integrin αvβ3 on cellular membrane was chosen as integrin-positive cancer cell, while breast cancer cell MCF-7 with a low level of integrin αvβ3 expression was used as the negative control. […] It should be noted that the probe could also be used for live cell imaging. To provide further evidence for thiol-induced disulfide bond cleavage as the trigger of fluorescence turn-on, the U87-MG cells were also pretreated with buthionine sulfoximine (BSO) before incubation with TPE-SS-D5-cRGD. BSO is an inhibitor of g-glutamylcysteine synthetase which can inhibit the cells from synthesizing GSH. The fluorescence of TPE-SS-D5-cRGD treated U87-MG cells decreases as the concentration of BSO increases from 25 to 100 μM.

Compound | in vitro cytotoxicity [1] | fluorescence of TPE-SS-D5-cRGD treated cells after BSO pretreatment [2]
N=C(N)NCCC[C@@H]1NC(=O)[C@H](CCCCNC(=O)[C@H](CC(=O)O)NC(=O)[C@H](CC(=O)O)NC(=O)[C@H](CC(=O)O)NC(=O)[C@H](CC(=O)O)NC(=O)[C@H](CC(=O)O)NC(=O)CCSSCCC(=O)NCc2ccc(C(=C(c3ccccc3)c3ccccc3)c3ccccc3)cc2)NC(=O)[C@@H](Cc2ccccc2)NC(=O)[C@H](CC(=O)O)NC(=O)CNC1=O [TPE-SS-D5-cRGD] | biocompatible | 
CCCCS(=N)(=O)CCC(N)C(=O)O (centres unmarked) [BSO, buthionine sulfoximine] |  | decreases
